Test results as given in IntAct's records for PubMed 15916946.

B1: Serine/threonine-protein kinase tousled-like 1 (Caenorhabditis elegans), P34314 (parent)
chain: MSMLSMDGIVAGGGSSSGGGERSFVLEQKMFNTGPQNKALPTVQSSGSSSNHAPIVGESPLGTVSSTMATGDTGRVGNVTYMSSGMLGATQFMPQNSSHPSTSVMMQQVPPQNGGATRSSPTEMQQCMQAMSEDSIEMRDYNSGVHHMHPHQMQMQQQQQHHQQQYNMSYHNHQQQMQQMHYHQQQQQYQQQQAQHHQMYAPQIQQQQQQPQQQSQQQSAQQPQQSSAALQHVNESSNLSSAGSISDREPEQHGGTPQRPTAPQSSTATDKKTRKRRKAGPTEDQATPKQERKITEFMKVGGEVASGNSVARCLLTEYHQNQGSPKRQPAVQQNGSNSYDSQQQQPQMNQHEMQNSYWGVATPSLGVNNRGTPTPTQQQHYSSDSNSNSNQSPPGQGNQSGRMVRTIDEETQTDSSLSQANPQNADEVAKMNRIIEDHRRQIEELNSKNSLERRKNEASKETIKRLLIDKNQIERKALRDKTAADSPRIGCFKTTRTGDSFRDQWVDGWAFAEMDKKTEQINAERNEIASASALLKKRKPLGIGKEPKRPQAVNSQNDSNGMQPSTSSNTNGDDAIFRRPEEPKEIQYQEYIELDEIYKLRREHLRKEETDLSMEKERLEKEKQHHVRELKRASNESASQFNDHRLLHKRYLMLNLLGKGGFSEVWKAFDIEENRYVACKIHHVNKDWKEEKKANYVKHAMREKDIHKSLDHCRIVKQYDLLTIDNHSFCTVLEYVPGNDLDFYLKQNRSISEKEARSIIMQVVSALVYLNEKSTPIIHYDLKPANILLESGNTSGAIKITDFGLSKIMEGESDDHDLGIELTSQFAGTYWYLPPETFIVPPPKITCKVDVWSIGVIFYQCIYGKKPFGNDLTQQKILEYNTIINAREVSFPSKPQVSSAAQDFIRRCLQYRKEDRADVFELAKHELFRPRGAIRASVAGSLLLVIITLCQHSNRSEDRLCVSNV
partner: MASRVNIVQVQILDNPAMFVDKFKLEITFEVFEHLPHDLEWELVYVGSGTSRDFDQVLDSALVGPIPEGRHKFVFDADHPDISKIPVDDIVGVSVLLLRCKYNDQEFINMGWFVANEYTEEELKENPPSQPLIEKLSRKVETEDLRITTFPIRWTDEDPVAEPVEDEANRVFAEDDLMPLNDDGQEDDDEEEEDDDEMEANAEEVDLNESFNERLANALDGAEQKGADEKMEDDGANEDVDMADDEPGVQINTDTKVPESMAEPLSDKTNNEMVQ

Variants of: B1
Details: with asf1_caeel unc-85, Q19326

Variant	effect of a mutation on the interaction
S634A	increasing interaction
S634E	increasing interaction
